The results in this text go back to WO2016171242A1 (dated 2016).

The target of test [1] is T1, endogenous human EPHA2 (on MDA-MB-231 cells or 293F cells) (human, UniProt P29317 24-976).
T1 construct: Untagged protein made by the cell lines themselves; also called endogenous EPHA2; EPHA2 endogenously expressed MDA-MB-231 cells
The test can be described thus: immunohistochemistry on formalin-fixed, paraffin-embedded MDA-MB-231 cells.

Test [2] deals with T2, human EPHA3 without signal sequence, FLAG-tagged, expressed from pFLAG-EPHA3 (human, UniProt P29320 21-983).
T2 construct: not shown: FLAG tag supplied by the vector pFLAG-GW
T2 sequence: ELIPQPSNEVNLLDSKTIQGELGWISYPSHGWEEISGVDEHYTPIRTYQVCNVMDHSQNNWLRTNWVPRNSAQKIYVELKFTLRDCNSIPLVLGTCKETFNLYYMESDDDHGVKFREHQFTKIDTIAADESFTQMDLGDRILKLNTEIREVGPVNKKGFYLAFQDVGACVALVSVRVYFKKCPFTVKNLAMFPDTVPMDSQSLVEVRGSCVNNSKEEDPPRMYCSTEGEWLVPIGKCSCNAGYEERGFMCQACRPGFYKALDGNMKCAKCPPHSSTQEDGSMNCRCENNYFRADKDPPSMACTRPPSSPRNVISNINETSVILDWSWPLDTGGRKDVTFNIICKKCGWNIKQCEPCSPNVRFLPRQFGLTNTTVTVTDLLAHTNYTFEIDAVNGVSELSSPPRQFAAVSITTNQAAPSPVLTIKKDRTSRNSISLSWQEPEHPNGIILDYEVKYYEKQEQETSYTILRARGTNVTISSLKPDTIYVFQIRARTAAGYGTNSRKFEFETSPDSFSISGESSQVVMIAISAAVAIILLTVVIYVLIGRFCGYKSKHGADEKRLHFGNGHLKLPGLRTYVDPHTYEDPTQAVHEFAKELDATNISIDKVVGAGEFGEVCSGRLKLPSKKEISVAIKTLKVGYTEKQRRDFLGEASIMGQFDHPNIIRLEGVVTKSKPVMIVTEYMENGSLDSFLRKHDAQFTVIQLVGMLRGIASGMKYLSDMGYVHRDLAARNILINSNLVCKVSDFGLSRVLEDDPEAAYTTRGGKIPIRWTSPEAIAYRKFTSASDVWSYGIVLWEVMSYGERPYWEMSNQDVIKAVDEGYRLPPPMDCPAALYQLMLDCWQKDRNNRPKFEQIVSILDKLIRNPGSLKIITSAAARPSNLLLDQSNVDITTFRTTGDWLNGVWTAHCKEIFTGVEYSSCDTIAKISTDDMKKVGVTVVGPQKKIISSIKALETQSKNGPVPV
The test can be described thus: flow cytometry on transfected 293F cells. In general terms: Flow cytometry measures light scatter and fluorescence of single cells or particles in a stream.

For test [3], the target named is T3, human EPHA5 without signal sequence, FLAG-tagged, expressed from pFLAG-EPHA5 (human, UniProt P54756 56-1037).
T3 construct: not shown: FLAG tag supplied by the vector pFLAG-GW
T3 sequence (P54756 56-1037): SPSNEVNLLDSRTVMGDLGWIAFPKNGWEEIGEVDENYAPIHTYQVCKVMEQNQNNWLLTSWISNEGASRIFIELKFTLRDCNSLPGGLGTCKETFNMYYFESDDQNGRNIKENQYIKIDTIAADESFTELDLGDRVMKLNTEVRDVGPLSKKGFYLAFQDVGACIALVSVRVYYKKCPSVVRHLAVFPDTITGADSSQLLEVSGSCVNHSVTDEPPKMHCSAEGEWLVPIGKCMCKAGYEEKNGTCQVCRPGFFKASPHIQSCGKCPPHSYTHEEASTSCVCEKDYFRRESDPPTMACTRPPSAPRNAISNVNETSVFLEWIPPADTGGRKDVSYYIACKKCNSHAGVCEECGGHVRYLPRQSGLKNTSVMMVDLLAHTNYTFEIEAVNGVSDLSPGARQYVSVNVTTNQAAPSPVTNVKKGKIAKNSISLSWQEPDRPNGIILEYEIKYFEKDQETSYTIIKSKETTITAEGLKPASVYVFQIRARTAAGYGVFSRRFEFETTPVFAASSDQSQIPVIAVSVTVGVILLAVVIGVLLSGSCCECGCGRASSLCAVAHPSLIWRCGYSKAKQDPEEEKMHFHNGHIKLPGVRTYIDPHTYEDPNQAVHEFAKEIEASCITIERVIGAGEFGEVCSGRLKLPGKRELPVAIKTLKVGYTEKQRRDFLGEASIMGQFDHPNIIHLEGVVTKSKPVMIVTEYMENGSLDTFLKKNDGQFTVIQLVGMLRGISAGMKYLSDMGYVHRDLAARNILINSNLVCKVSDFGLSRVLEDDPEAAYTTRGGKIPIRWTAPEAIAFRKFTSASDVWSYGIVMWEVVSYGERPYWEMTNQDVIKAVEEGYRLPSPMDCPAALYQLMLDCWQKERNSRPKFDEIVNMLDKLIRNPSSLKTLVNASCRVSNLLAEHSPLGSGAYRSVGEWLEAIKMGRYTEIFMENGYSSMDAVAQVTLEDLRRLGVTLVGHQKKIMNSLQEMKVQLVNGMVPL
The test can be described thus: flow cytometry on transfected 293F cells.

In test [4] the target is T4, human PTPRF isoform 2 without signal sequence, FLAG-tagged, expressed from pFLAG-PTPRF-2 (human, UniProt P10586 30-1907).
T4 construct: not shown: FLAG tag supplied by the vector pFLAG-GW
T4 sequence (P10586 other isoform, or with tags, fused parts or gaps): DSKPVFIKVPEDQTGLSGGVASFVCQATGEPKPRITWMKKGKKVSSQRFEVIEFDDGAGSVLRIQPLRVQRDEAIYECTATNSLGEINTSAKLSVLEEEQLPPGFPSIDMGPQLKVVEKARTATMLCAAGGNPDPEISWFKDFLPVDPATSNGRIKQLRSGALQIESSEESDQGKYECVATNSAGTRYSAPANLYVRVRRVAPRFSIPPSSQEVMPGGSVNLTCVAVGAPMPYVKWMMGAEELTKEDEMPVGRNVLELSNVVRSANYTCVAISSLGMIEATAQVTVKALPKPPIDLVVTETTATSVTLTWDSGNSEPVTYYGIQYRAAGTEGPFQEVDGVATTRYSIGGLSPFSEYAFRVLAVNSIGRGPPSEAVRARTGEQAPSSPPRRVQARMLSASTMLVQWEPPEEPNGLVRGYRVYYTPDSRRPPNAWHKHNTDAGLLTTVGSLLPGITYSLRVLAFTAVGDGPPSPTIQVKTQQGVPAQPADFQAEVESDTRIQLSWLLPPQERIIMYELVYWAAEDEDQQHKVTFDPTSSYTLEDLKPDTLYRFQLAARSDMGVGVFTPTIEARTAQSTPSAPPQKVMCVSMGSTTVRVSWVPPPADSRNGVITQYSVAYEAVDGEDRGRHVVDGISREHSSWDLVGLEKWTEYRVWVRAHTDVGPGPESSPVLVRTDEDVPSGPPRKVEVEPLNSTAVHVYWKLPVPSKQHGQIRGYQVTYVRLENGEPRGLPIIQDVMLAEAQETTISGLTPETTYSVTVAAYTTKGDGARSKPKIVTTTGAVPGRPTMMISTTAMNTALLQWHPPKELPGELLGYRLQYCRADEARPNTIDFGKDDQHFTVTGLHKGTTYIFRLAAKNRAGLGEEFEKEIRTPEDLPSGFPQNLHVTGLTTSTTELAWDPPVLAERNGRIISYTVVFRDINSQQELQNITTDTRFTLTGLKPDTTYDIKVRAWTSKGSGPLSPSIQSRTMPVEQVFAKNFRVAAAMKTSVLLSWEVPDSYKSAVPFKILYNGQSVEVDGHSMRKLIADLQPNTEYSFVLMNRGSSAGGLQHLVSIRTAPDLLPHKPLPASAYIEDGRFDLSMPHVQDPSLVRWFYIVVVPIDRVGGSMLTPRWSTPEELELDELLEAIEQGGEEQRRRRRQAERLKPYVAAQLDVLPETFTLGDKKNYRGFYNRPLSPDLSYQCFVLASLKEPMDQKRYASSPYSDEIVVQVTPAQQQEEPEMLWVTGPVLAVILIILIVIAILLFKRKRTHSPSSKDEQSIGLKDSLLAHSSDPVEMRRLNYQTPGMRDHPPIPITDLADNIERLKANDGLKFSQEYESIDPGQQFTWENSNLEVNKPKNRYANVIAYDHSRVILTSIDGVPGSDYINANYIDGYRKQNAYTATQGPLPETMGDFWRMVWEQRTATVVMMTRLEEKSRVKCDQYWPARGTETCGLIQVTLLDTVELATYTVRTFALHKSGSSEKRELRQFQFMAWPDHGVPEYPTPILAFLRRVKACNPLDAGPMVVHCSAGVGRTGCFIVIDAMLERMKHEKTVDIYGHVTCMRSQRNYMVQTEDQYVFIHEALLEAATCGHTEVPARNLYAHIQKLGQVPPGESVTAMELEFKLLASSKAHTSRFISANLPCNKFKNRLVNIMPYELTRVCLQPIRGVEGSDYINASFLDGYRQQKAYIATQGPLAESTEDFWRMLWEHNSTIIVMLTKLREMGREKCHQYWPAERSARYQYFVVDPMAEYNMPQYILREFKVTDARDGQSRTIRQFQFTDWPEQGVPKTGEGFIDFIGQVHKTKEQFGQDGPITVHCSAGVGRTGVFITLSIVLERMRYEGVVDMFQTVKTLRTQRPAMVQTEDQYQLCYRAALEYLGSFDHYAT
The test can be described thus: flow cytometry on transfected 293F cells.

Test [5] concerns the target T5, human PTPRS isoform 2 without signal sequence, FLAG-tagged, expressed from pFLAG-PTPRS-2 (human, UniProt Q13332 30-1948).
T5 construct: not shown: FLAG tag supplied by the vector pFLAG-GW
The test can be described thus: flow cytometry on transfected 293F cells.

The target in test [6] is T6, human EPHA2 without signal sequence, FLAG-tagged, expressed from pFLAG-EPHA2 (human, UniProt P29317 24-976).
T6 construct: formalin-fixed, paraffin-embedded; not shown: FLAG tag supplied by the vector pFLAG-GW (from pFLAG-myc-CMV19)
T6 sequence (P29317 24-976): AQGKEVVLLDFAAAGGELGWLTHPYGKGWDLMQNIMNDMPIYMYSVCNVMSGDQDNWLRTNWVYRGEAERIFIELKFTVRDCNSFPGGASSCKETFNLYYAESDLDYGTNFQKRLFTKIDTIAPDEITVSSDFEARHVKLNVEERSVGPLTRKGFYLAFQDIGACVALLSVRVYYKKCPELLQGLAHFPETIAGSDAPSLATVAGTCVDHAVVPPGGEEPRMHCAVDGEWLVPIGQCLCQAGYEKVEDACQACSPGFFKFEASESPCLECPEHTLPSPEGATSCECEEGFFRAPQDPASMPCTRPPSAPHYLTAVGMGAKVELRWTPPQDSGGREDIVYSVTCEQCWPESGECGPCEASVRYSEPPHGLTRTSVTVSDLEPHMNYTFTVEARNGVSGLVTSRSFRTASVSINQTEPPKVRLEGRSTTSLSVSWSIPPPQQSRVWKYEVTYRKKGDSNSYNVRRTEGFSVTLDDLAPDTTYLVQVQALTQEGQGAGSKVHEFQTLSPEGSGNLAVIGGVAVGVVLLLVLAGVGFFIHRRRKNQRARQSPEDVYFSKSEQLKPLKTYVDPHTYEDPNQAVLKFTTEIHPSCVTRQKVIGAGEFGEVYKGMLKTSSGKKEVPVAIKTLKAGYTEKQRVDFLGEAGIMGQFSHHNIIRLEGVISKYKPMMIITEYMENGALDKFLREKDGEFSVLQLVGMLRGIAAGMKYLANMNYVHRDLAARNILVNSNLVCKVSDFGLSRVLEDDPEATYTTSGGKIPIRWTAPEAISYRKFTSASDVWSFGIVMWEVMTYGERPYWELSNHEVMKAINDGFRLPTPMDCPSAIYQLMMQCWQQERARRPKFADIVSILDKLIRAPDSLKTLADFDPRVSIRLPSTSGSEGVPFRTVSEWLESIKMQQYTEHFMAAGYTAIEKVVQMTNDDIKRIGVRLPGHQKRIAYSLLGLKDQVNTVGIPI
Description: immunohistochemistry on formalin-fixed, paraffin-embedded 293F cells transiently expressing EPHA2; antibody at 2.5 μg/mL.

T1 sequence (P29317 24-976): as above

B1: mouse anti-human EPHA2 antibody A205 (antibody, V domains shown)
VH: QIQLVQSGPELKKPGETVKISCKASGYTFTDYSMNWVKQAPGKGLKWMGWINTYTGEPTYADDFKGRFAFSLETSASTAYLQINNLKNEDTATYFCASPISLLRLLDYWGQGTTLTVSS
VL: DVVMTQTPLSLPVSLGDQASIPCRSSQSLVHSNGNTYLHWYLQKPGQSPKLLIYKVSNRFSGVPDRFSGSGSGTDFTLKISRVEAEDLGVYFCSQSTHVPWTFGGGTKLEIKR
notes: Mouse monoclonal antibody purified from hybridoma supernatant, isotype IgG2b; also called A205 antibody
For B1, the binding result in test [1] is “binds”; in test [2] it was “no binding”; in test [3], “no binding”; in test [4] it was “no binding”; in test [5], “no binding”; in test [6] it was “binds”.

B2: mouse anti-human EPHA2 antibody A201 (antibody, V domains shown)
VH: EVQLQQSGAELVKPGASVKLSCTVSGFTFKDTYVHWVKQRPEQGLEWIGRIDPANANTKYDPKFQGKASITADTSSNTAYLQLSSLPSEDTAVYYCAAYGKSAWFAYWGQGTLVTVSA
VL: DIQMTQTTSSLSASLGDRVTISCRASQDIGNYLNWYQQKPDGTVKVLIYYTSRLHSGVPSRFSGSGSGTDYSLTISNLEQEDIATYFCQQGHSLPPTFGGGTKLEIKR
notes: Mouse monoclonal antibody purified from hybridoma supernatant, isotype IgG1; also called A201 antibody
B2: the binding result in test [1] is listed as “binds”; in test [2], “no binding”; in test [3] it was “no binding”; in test [4], “no binding”; in test [5], “no binding”; in test [6], “binds”.
